The text below walks through data of paper PMC9629490 (Acta Crystallographica. Section D, Structural Biology, 2022).

For the assay, the target named is T1, human SNRNP200^395-2136 (truncated SNRNP200 lacking the first 394 residues) (human, UniProt O75643 395-2136).
T1 construct: In the co-purification with PRPF8^RH-JM the complex was captured on Ni-NTA and the tag was then cut with TEV protease; also called SNRNP200 helicase; source: modified pFL vector; purified, obtained as described previously (Santos et al., 2012); also co-produced with PRPF8^RH-JM in Sf9 cells (baculovirus)
The assay is described as follows: SEC; analytical SEC, Superdex 200 Increase PC3.2/30, 20 mM Tris-HCl pH 7.5, 250 mM NaCl, 0.5 mM DTT; proteins mixed in equimolar ratios, 30 min on ice; fractions analyzed by SDS-PAGE. The note with it: both partners purified.

T1 sequence (O75643 395-2136): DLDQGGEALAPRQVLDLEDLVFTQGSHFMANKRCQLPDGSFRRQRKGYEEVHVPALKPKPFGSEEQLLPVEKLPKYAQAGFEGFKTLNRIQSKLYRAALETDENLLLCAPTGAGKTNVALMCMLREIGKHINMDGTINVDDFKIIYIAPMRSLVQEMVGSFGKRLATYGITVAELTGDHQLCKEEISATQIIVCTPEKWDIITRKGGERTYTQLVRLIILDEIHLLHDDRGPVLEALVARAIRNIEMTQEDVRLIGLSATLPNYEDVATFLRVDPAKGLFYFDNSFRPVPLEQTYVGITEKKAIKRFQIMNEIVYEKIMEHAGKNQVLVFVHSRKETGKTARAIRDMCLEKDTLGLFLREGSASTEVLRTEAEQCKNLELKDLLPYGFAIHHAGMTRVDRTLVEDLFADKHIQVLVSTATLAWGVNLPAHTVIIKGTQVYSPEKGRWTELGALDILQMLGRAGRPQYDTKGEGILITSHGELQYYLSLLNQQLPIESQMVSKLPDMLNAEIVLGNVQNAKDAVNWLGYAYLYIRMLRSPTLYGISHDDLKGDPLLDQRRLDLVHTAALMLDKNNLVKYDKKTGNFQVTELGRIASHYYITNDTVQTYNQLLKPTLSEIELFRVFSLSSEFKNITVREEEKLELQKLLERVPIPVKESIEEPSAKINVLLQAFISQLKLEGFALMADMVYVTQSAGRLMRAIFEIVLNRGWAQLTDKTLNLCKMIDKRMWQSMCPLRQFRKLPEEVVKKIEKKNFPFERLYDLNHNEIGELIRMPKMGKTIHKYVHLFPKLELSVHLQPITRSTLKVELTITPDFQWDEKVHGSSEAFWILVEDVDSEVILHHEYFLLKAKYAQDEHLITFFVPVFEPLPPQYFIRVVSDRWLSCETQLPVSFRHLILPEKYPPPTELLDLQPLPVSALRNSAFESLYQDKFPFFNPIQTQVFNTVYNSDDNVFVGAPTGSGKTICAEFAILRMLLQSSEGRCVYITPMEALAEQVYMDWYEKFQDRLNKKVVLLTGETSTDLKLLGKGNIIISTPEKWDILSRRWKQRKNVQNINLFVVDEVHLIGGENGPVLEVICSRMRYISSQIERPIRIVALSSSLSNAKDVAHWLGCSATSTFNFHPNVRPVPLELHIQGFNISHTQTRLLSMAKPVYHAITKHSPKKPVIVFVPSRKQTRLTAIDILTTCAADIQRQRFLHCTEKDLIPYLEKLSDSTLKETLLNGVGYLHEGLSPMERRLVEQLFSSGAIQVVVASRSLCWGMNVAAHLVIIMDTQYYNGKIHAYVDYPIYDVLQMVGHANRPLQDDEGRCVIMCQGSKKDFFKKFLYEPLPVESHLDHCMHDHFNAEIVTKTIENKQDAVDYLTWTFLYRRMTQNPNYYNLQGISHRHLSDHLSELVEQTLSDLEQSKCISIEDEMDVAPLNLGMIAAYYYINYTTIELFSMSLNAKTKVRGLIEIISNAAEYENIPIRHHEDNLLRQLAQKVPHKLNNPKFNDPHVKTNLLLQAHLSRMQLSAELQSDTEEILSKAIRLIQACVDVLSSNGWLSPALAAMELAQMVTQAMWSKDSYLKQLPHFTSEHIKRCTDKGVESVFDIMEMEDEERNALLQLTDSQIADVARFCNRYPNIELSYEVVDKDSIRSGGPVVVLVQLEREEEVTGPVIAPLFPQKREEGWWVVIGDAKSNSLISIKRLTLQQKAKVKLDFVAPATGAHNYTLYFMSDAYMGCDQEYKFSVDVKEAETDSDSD

B1: human PRPF8 C-terminal fragment encompassing the RH and JM domains (PRPF8^RH-JM, residues 1760-2335) (domain or fragment)
chain: not shown
notes: human PRPF8, C-terminal fragment with the RH and JM domains, residues 1760-2335; no tag is stated for this chain (pIDK donor vector); also called PRPF8^RM-JM; prpf8^1760–2335
On to B1, for which the binding result is reported as “binds”.

B2: human PRPF8 Jab1/MPN-like domain (PRPF8^JM, residues 2064-2335) (domain or fragment)
chain: not shown
notes: human PRPF8, Jab1/MPN-like domain, residues 2064-2335; The GST tag is TEV-cleavable; also called PRPF8 JM domain; source: pET-M11 plasmid, codon-optimized synthetic gene; purified, obtained as described previously (Mozaffari-Jovin et al., 2013)
For the molecule B2, the binding result was “binds”.
